# Laboratory results reported in paper PMC5059767 (2016).
# Biological target: His-PKAC (human wild-type PKAC) (human, UniProt P17612 1-351)
# Test: ITC
binder,measurement,value
EPTLPREFTRRGRRGAVSVDSLAEL [36i peptide (25 aa ARHGAP36 pseudosubstrate motif)],Kd,0.86 µM
